Source: US20250082608A1, “TREATMENT AND PREVENTION OF GLOMERULAR DISEASE” (Singapore Health Services PTE LTD., priority 2021, published 2025)
Entries after “also recorded” stand apart in the source; their conditions may differ.

What was measured:
Col4a3−/− mice [1] = settings: cited from earlier work
Col4a3−/− mice [2] = assay: Lifespan study in Col4a3−/− mice, anti-IL11 and ramipril alone or in combination, Example 3; type: in vivo, mouse; settings: X203 20 mg/kg twice a week, ramipril 10 mg/kg 6 days/week, from 6 weeks of age; for mean percentage lifespan extension: over lifespan of untreated Col4a3−/− mice
Experimental: Col4a3^−/− (Col4a3^tm1Dec) mice were housed as described in Example 2.2. For lifespan studies, the mice were intraperitoneally administered either anti-IL11 (X203; twice a week, 20 mg/kg) or IgG isotype control (11 E10; twice a week, 20 mg/kg) alone or in combination with ramipril (10 mg/kg; 6 days/week) starting from 6 weeks of age, until death ensued.

[3] = test system: rheumatoid synovial cells; settings: upon treatment; cited from earlier work
Col4a3−/− mice [4] = assay: Treatment study in Col4a3−/− mice: renal mRNA expression by qPCR; type: in vivo, mouse
Experimental: (§1) Col4a3^−/− (Col4a3^tm1Dec) mice were purchased from The Jackson Laboratory (https://www.jax.org/strain/002908). Mice were housed in temperatures of 21-24° C. with 40-70% humidity on a 12 h light/12 h dark cycle and provided with food and water ad libitum. For treatment study, Col4a3^−/− were administered 20 mg/kg of anti-IL11 (X203) or IgG isotype control (11 E10) by intraperitoneal (IP) injection starting from 6 weeks of age twice a week for 2.5 weeks; wild-type littermates were used as controls. Mice were sacrificed for blood and kidney collection when they were 8.5-week-old. For lifespan study, IgG/X203 was administered to 6-week-old Col4a3^−/− (2×/week) until death ensued.
Total RNA was extracted from snap-frozen kidney tissues using Trizol (Invitrogen) followed by RNeasy column (Qiagen) purification. cDNAs were synthesized with iScript™ cDNA synthesis kit (Bio-Rad) according to manufacturer's instructions. Gene expression analysis was performed on duplicate samples with either TaqMan (Applied Biosystems) or fast SYBR green (Qiagen) technology using StepOnePlus™ (Applied Biosystem) over 40 cycles. Expression data were normalized to GAPDH mRNA expression and fold change was calculated using […]. The sequences of specific TaqMan probes and SYBR green primers are available upon request.

Col4a3−/− mice [5] = assay: Treatment study in Col4a3−/− mice: Wilms' Tumor 1 immunohistochemistry (podocytes); type: in vivo, mouse; settings: blinded quantification; vs IgG, P=0.0002
Experimental: as §1
Kidneys were fixed in 10% neutral-buffered formalin (NBF), paraffinized, cut into 7 μm sections, incubated with primary antibodies overnight and visualized using an ImmPRESS HRP anti-rabbit IgG polymer detection kit (MP-7401, Vector Laboratories) with ImmPACT DAB Peroxidase Substrate (SK-4105, Vector Laboratories). Quantification of WT^+ve cells were performed in a blinded fashion from 4 images (200×field)/kidney (n=3-4 kidneys/group).

Col4a3−/− mice [6] = assay: Treatment study in Col4a3−/− mice: renal fibrosis (total renal collagen content, Masson's Trichrome staining); type: in vivo, mouse; settings: 20 mg/kg 2x/week for 2.5 weeks from 6 weeks of age; vs IgG
Experimental: as §1
Kidney tissues were fixed for 48 hours at RT in 10% neutral-buffered formalin (NBF), dehydrated, embedded in paraffin, and sectioned at 7 μm. Transverse kidney sections were then stained with Masson's Trichrome according to standard protocol. Images of the sections were captured by light microscopy and blue-stained fibrotic areas were semi-quantitatively determined with Image-J software (color deconvolution-Masson Trichrome) from the whole kidney area (100×field, n=4 kidneys/group). Treatment and genotypes were not disclosed to investigators performing the histology and generating semi-quantitative readouts.

129-Col4a3^tm1Dec/J mice = assay: Survival of mice homozygous for Col4a3^tm1Dec (mouse model of Alport syndrome), Example 1; type: in vivo; settings: 20 mg/kg i.p. biweekly from 6 weeks of age until mortality
From the text: 129-Col4a3^tm1Dec/J mice were obtained from The Jackson Laboratory (Stock No:002908; COL4A3 KO). The mice comprise the Col4a3^tm1Dec mutation described e.g. in Cosgrove et al., Genes Dev. (1996) 10:2981-2992, which is hereby incorporated by reference in its entirety. 129-Col4a3^tm1Dec/J mice comprise a targeted mutation to Col4a3, resulting in progressive glomerulonephritis with microhematuria and proteinuria, and mice homozygous for the mutation typically die at about 8.5 weeks.
From 6 weeks of age, mice homozygous for the Col4a3^tm1Dec mutation were administered biweekly by intraperitoneal injection of 20 mg/kg of Enx203, or an isotype-matched control antibody, until mortality.

Col4a3−/− mice [7] = assay: Lifespan study in Col4a3−/− mice, Example 2; type: in vivo, mouse
Experimental: as §1
Statistical analyses were performed using GraphPad Prism software (version 8). Statistical significance between control and experimental groups were analysed by twosided Student's t tests or by one-way ANOVA as indicated in the figure legends. P values were corrected for multiple testing according to Tukey when several conditions were compared to each other within one experiment. Comparison analysis for two parameters from two different groups were performed by two-way ANOVA. Survival curves were analyzed by Gehan-Breslow-Wilcoxon test. The criterion for statistical significance was P<0.05.

Col4a3−/− mice [8] = assay: Treatment study in Col4a3−/− mice: body weight and kidney weight; type: in vivo, mouse
Experimental: as §1
Over recent years, antibodies that inhibit IL11 signaling in mouse and human cells have been developed^15,17. One of these neutralizing IL11 antibodies (X203) or an IgG control were administered to 6-week-old Col4a3^−/− mice, the time point when initiation of ramipril has proven ineffective^6, and examined renal pathologies at 8.5 weeks of age, as compared to age-matched wild-type controls (FIG. 3A).

Col4a3−/− mice [9] = assay: Treatment study in Col4a3−/− mice: renal function (BUN, serum creatinine, urinary albumin:creatinine) by colorimetric assays/ELISA; type: in vivo, mouse; settings: study end, 8.5 weeks of age; X203 from week 6
Experimental: as §1
The levels of blood urea nitrogen (BUN) and creatinine in mouse serum were measured using Urea Assay Kit (ab83362, Abcam) and Creatinine Assay Kit (ab65340, Abcam), respectively. Urine albumin and creatinine levels were measured using Mouse Albumin ELISA kit (ab108792, Abcam) and Creatinine Assay Kit (ab204537, Abcam), respectively. All ELISA and colorimetric assays were performed according to the manufacturer's protocol.

Col4a3−/− mice [10] = assay: Treatment study in Col4a3−/− mice: Western blot of kidney protein extracts; type: in vivo, mouse; settings: vs IgG
Experimental: as §1
Western blot was carried out on total protein extracts from mouse kidney tissues. Kidneys were lysed in radioimmunoprecipitation assay (RIPA) buffer containing protease and phosphatase inhibitors (Thermo Scientifics), followed by centrifugation to clear the lysate. Protein concentrations were determined by Bradford assay (Bio-Rad). Protein lysates were separated by SDS-PAGE, transferred to PVDF membrane, and subjected to immunoblot analysis for various antibodies as outlined in the main text, figures, or and/or figure legends. Proteins were visualized using the ECL detection system (Pierce) with the appropriate secondary antibodies: anti-rabbit HRP or antimouse HRP.

IL-11Rα = biological target: T1, IL-11Rα (Homo sapiens, UniProt Q14626); settings: low affinity; cited from earlier work
T1 sequence (Q14626 23-422): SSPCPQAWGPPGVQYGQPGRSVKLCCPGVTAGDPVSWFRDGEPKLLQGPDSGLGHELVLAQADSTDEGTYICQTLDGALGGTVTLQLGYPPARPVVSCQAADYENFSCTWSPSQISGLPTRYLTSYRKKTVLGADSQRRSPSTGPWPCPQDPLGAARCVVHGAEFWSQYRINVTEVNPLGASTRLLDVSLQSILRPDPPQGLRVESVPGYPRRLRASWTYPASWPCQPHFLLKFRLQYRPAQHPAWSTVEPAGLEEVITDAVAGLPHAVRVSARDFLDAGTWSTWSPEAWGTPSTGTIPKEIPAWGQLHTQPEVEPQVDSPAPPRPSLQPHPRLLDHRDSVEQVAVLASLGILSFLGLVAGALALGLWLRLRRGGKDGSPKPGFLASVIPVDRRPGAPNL

Molecule: CCOC(=O)[C@H](CCc1ccccc1)N[C@@H](C)C(=O)N1[C@H](C(=O)O)C[C@@H]2CCC[C@@H]21 [ramipril]
- beneficial effect of delayed treatment (Col4a3−/− mice [1]; treatment delayed until after proteinuria was established (6-week-old mice)): no beneficial effect; also recorded: ineffective
- kidney dysfunction and lifespan (Col4a3−/− mice [1]; treatment of 4-week-old mice, prior to onset of proteinuria and tubulointerstitial fibrosis): attenuated kidney dysfunction and prolonged lifespan
- improvement of median survival over untreated mice (Col4a3−/− mice [2]): 14 days
- mean percentage lifespan extension (Col4a3−/− mice [2]): 25.40%

Molecule: interferon-gamma (IFNγ): interferon-gamma
- expression of IL-11 [3]: reduction in the expression of IL-11

Molecule: COc1ccc2c(c1)c(CC(=O)O)c(C)n2C(=O)c1ccc(Cl)cc1 [indomethacin, reference compound]
- expression of IL-11 [3]: reduction in the expression of IL-11

B1: Enx203: mouse anti-mouse IL-11 IgG, neutralizing; VH SEQ ID NO:22, VL SEQ ID NO:23 (antibody, V domains shown)
VH: EVQLQQSGPELVKPGASVKIPCKASGYTFTDYNMDWVKQSHGKSLEWIGDINPHNGGPIYNQKFTGKATLTVDKSSSTAYMELRSLTSEDTAVYYCARGELGHWYFDVWGTGTTVTVSS
VL: DIVLTQSPASLAVSLGQRATISCRASKSVSTSGYSYIHWYQQKPGQPPKLLIYLASNLDSGVPARFSGSGSGTDFTLNIHPVEEEDAATYYCQHSRDLPPTFGGGTKLEIK
- renal levels of extracellular matrix genes (Col1a1, Col1a2, Col3a1, Fn), Acta2 and pro-fibrotic factors (Il11, Tgfb1) (Col4a3−/− mice [4]; mRNA, 20 mg/kg 2x/week for 2.5 weeks from 6 weeks of age, vs IgG): all reduced
- indicators of tubule damage (Kim1 and Ngal) (Col4a3−/− mice [4]; renal mRNA): restored by X203 administration towards the levels seen in wildtype mice
- Tnfα expression (Col4a3−/− mice [4]; renal mRNA, vs IgG): reduced Tnfα expression
- proinflammatory interleukins (Il6, Il1b) and CC chemokines (Ccl2, Ccl5) (Col4a3−/− mice [4]; renal mRNA, vs IgG): equally diminished
- number of WT1-positive cells (podocytes) (Col4a3−/− mice [5]): restored towards normal; also recorded: restoration of podocytes
- kidney fibrosis by biochemical and histological assessments (Col4a3−/− mice [6]): reduced severity of renal fibrosis; also recorded: significantly less kidney fibrosis
- increase in survival relative to mice treated with isotype-matched control antibody (129-Col4a3^tm1Dec/J mice): up to 40%
- median lifespan (Col4a3−/− mice [7]; 20 mg/kg 2x/week from 6 weeks of age until death, IgG control 62.5 days, P=0.0015): 88.5 days
- extension of median life span (Col4a3−/− mice [7]; from 62.5 to 88.5 days, vs IgG): 41.6%
- kidney mass (kidney weight) (Col4a3−/− mice [8]; 20 mg/kg 2x/week for 2.5 weeks from 6 weeks of age, vs IgG): preserved kidney mass
- total body weight loss as a percentage of starting body weight (Col4a3−/− mice [8]; 20 mg/kg i.p. 2x/week for 2.5 weeks from 6 weeks of age, end of study, IgG control 30%, P=0.0003): 17%
- serum blood urea nitrogen (BUN) (Col4a3−/− mice [9]): improved renal function; also recorded: markedly lowered
- serum creatinine (Cr) (Col4a3−/− mice [9]): improved renal function; also recorded: markedly lowered
- urinary albumin:creatinine ratio (ACR) (Col4a3−/− mice [9]): reduced albuminuria; also recorded: markedly lowered
- improvement of median survival over untreated mice (Col4a3−/− mice [2]): 28 days
- mean percentage lifespan extension (Col4a3−/− mice [2]): 41.93%
- ERK and STAT3 phosphorylation in kidneys (Col4a3−/− mice [10]; 20 mg/kg 2x/week for 2.5 weeks from 6 weeks of age): largely reduced; also recorded: largely diminished
- TGFβ upregulation in the kidneys (Col4a3−/− mice [10]; Western blot): significantly reduced the degree of TGFβ upregulation
- Caspase 3 activation (Col4a3−/− mice [10]; kidney Western blot (cleaved Caspase 3)): reduced
- alpha-smooth muscle actin (αSMA) and fibronectin protein (Col4a3−/− mice [10]; kidney, reduction seen on transcripts): confirmed at the protein level
- podocyte markers WT1 and Podocin by immunoblotting (Col4a3−/− mice [10]; kidney): restored towards normal; also recorded: Preservation of podocytes

B2: IL-11: pleiotropic cytokine, member of the IL-6 family; human sequence SEQ ID NO:1 (protein)
chain: PGPPAGSPRVSSDPRADLDSAVLLTRSLLADTRQLAAQMRDKFPADGDHSLDSLPTLAMSAGTLGSLQLPGVLTRLRVDLMSYLRHVQWLRRAGGPSLKTLEPELGALQARLERLLRRLQLLMSRLALPQAAPDQPVIPLGPPASAWGSIRAAHAILGGLHLTLDWAVRGLLLLKTRL
- Kd (IL-11Rα): ~0.022 µM
